Patent publication US20070053894A1

Tests used:
[1] = molecular target: Soluble human recombinant p97 (melanotransferrin) (human) (UniProt P08582); assay: SPR (BIAcore), p97 immobilised on CM5 chip, mAb injected at 0.05 µg/µl
[2] = molecular target: Soluble human recombinant p97 (melanotransferrin) (human) (UniProt P08582); assay: cell-based or functional assay
[3] = molecular target: endogenous membrane-bound p97 of HMEC-1 and SK-MEL28 cells (human) (UniProt P08582); assay: cell-based or functional assay
[4] = molecular target: Soluble human recombinant p97 (melanotransferrin) (human) (UniProt P08582); assay: SPR (BIAcore), p97 immobilised on CM5 chip, mAb injected

Sequence of Soluble human recombinant p97 (melanotransferrin) (human) (P08582 20-711 T431K): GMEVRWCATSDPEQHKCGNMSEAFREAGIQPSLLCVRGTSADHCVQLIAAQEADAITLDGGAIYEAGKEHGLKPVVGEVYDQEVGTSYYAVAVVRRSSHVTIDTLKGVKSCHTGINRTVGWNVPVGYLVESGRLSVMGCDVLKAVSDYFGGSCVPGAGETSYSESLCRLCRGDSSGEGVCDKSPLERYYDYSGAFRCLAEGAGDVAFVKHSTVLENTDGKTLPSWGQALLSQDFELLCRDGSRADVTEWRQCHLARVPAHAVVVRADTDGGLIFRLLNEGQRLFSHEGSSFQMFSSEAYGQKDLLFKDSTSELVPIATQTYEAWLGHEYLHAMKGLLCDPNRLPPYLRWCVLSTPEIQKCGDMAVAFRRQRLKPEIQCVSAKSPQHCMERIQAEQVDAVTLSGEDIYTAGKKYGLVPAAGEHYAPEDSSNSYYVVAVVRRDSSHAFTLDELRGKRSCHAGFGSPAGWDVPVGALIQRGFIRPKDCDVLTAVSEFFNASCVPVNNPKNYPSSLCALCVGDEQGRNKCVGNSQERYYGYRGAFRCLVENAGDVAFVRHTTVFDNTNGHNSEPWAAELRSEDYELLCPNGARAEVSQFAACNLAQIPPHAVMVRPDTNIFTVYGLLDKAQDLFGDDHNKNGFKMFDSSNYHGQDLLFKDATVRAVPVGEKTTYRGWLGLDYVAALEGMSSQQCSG
Sequence of endogenous membrane-bound p97 of HMEC-1 and SK-MEL28 cells (human) (P08582 20-709): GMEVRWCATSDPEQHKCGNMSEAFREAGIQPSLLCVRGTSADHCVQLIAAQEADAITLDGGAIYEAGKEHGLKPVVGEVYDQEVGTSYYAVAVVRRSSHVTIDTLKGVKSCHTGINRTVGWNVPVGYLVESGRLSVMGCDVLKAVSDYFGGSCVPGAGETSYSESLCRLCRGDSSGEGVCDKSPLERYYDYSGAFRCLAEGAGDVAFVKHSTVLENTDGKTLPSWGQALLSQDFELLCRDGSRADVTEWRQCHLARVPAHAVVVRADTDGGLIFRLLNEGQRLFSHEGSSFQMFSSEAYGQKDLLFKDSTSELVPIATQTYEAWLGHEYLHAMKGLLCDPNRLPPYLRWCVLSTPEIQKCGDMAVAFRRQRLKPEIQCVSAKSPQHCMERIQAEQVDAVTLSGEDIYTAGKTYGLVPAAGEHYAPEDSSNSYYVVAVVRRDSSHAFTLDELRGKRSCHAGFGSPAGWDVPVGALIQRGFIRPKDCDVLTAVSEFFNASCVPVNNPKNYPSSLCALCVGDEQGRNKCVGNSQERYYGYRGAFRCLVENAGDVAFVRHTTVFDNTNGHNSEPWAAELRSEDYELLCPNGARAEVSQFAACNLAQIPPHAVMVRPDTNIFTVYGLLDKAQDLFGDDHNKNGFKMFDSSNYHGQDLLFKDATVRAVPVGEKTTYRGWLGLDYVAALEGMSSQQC

ΔRU [1]: 1060 RU | inhibition of the effect of soluble p97 on plasminogen activation by tPA [2]: 80% | inhibition of the pro-uPA activation induced by p97 (plasminolytic activity) [2]: 50% | inhibition of HMEC-1 cell migration by 50 nM mAb L235 (Boyden chamber) [3]: 54% | inhibition of SK-MEL28 cell migration by 50 nM mAb L235 (Boyden chamber) [3]: 48% | inhibition of plasminolytic activity of HMEC-1 cells by 250 nM mAb L235 [3]: > 50% | Ka [4]: 9e+08 M⁻¹ | Kd [4]: 1.2 nM | koff [4]: 5.3e-05 s⁻¹ | kon [4]: 44000 M⁻¹ s⁻¹
Substance: monoclonal antibody L235 directed against p97
